Measured values from a protein production outcome set (Wang et al. 2014).

Experiment: label from the status in PepcDB records
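Further: failed if final PepcDB status was selected cloned or expressed and not failed if soluble or beyond.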

NSHKVQMEKEIALKQKKFEQKHLQNYTDEIVGLYNEIRGFRHDYAGMLVSMQMAIDSGNLQEIDRIYNEVLVKANHKLRSDKYTYFDLNNIEDSALRSLVAQSIVYARNNGVEFTLEVKDTITKLPIELLDLVRIMSVLLNNAVEGSADSYKKQMEVAVIKMETETVIVIQNSCKMTMTPSGDLFALGFSTKGRNRGVGLNNVKELLDKYNNIILETEMEGSTFRQIIRFKREFE
protein production: failed

MSPQSPSNSSISTDDQAGKNPAAAFGPNEWLVDEIYQQYLQDPNSVDRAWWDFFADYKPGAAAASAPAGTAAAGAAETTTPAPAAPTAAAPAAPAAPAPAAPAPAPAAPAPAAAPAVPKPAAAAPAPAAAKPAAAAPAQPKAAAATEAAEGPTFVPLRGPAAAVAKNMNASIEVPTATSVRAVPVKLLFDNRIVINNHLKRARGGKISFTHLIGYAMVQAIKAMPSMNWHYAEKDGKPTLVKPAHVNFGLAIDLVKPNGDRQLVVAGIKKAETLNFFEFWQAYEDIVRRARDGKLTMDDFTGVTVSLTNPGGLGTVHSVPRLMPGQSVIMGVGSMDYPAEFQGTSQDTLNKLGISKVMTLTSTYDHRVIQGAASGEFLRIVANFLLGEGGFYDEIFEALRIPYEPVRWLKDIDASHDDDVTKAARVFELIHSYRVRGHVMADTDPLEYRQRKHPDLDITEHGLTLWDLEREFAVGGFAGKSLMKLRDILGVLRDSYCRTTGIEFMHIQDPKQRKWIQDRIERSHSKPEREEQLRILRRLNAAEAFETFLQTKYVGQKRFSLEGGESVIPLLDAVIDSAAESRLDEVVIGMAHRGRLNVLANIVGKSYAQIFREFEGNLDPKSMHGSGDVKYHLGASGTFTGLDGEQIKVSLAANPSHLETVDPIIEGIARAKQDIINKGGTDFTVLPVALHGDAAFAGQGVVAETLNMSQLRGYRTGGTVHIVINNQVGFTAAPESSRSSMYATDVARMIEAPIFHVNGDDPEAVVRVARLAFEFRQAFNKDVVIDLICYRRRGHNESDNPAFTQPLMYDLIDKKRSVRKLYTESLIGRGDITLEEAEQALQDFQGQLEKVFTEVREAISTPGEAPAPEPQPEFPVAVPTAVSQEVVKRIAESQVNIPDHVTVHPRLLPQLQRRAAMIEDDTIDWGMGETLAIGSLLLEGTPVRLSGQDSRRGTFGQRHAVLIDRVTGEDFTPLQYLADDQARLNVYDSLLSEYAVMGFEYGYSLARPDALVMWEAQFGDFVNGAQTVVDEYISAAEQKWGQTSGVTLLLPHGYEGQGPDHSSARIERFLQLCAQNNMTVAQPTLPSNYFHLLRWQVHNPHHKPLVVFTPKSMLRLKAAASKTEEFTTGAFRPVIGDDTVDAAAVRKVVFCAGKLYYDLEAERKKRGATDAAAAETAIIRLERLYPLPGAELQAEIAKYPNAEKYLWAQEEPANQGAWPFIALNLIDHLDLAVGADVPHGERLRRISRPHSSSPAVGSAKRHQAEQEQLVREVFEA
protein production: failed

MQTPSKKYVVDIWSDFVCPWCWIAKRRFENALNRSGMQDDVQVNVRAYRLAANQAPEPMIGALKRKLGNPASADSMMSTVSKYGRADGLDYRFDTMMFGDTADAHILVKAVEDTAVKKRLVEALYEQSTSHGRSLFDRSSLEAIAREVGVSDESIQLAWSSVELRNEMKDDESFAAQLGSGVPLFVFDSSFSVSGAQPDAVFLEALNKMVANSNPEDSSMMGQVCSIDGCKV
protein production: not failed

LGINEISSSFFSLLLEILLLESQASLPMLEERVLDWQSSPASSLNSWFSAAPNWAELVLPALQYLAGESRAVPSSFSPFVEFKEKTQQWKLLGQSQDNEKELAALFQLWLETKDQAFCKQENEDSS
protein production: not failed

MERSEEEIENLWKLQSEVKQRSESVKSIITELEIERGTLKVRALKLKEDSDVLTTWVEMNYLKLTSMDMGRIEEMFEIESEVEGLAGDDAIEDVLRVLEEAAERGELEIGSYLKQVRVLAREQFFLKHLSSFKTQNFHI
protein production: failed

MSRNPEVLWAQRSDKVYLTVALPDAKDISVKCEPQGLFSFSALGAQGERFEFSLELYGKIMTEYRKNVGLRNIIFSIQKEERSWWTRLLKSEEKPAPYIKVDWNKWCDEDEEVNSETASDDESAFVNQDSESSDDDGLLYLPDLEKARNK
protein production: not failed

MPSQDWERSVLGCSMQVGQGWCCVDLSDISCVQDVAKEVLDCYGCVDILINNASVKVKGPAHKISLELDKKIMDANYFGPITLTKVLLPNMISRRTGQIVLVNNIQAKFGIPFRTAYAASKHAVMGFFDCLRAEVEEYDVVVSTVSPTYIRSYRASPEQRNWETSICKFFCRKLAYGVHPVEVAEEVMRTVRRKKQEVFMANPVPKAAVFIRTFFPEFFFAVVACGVKEKLNVPEEG
protein production: failed

MNRNGLLIALALFAGIGLTFGLFPGLDLWLAGLFYDTAAKTFPMRSMPDLEFARDFAMWVAWAIAAPSIFALVYKMIRPDRPLVMPGRTVAFLLISITLSAGVLTNMTFKSHWGRPRPAAVTEFNGPWQFKAWWDNSGACPKNCSFFSGEGATAYWTFAPAALTPPAVRPYAYAAAFTFGTVTSGLRMAFGGHFFTDVAIAGLVTFLVIWLLYALIYRWAWSRTSDEAIDAALTRAFWPLYRLRLKKWRGQDIGPAPAA
protein production: failed

MSAVATFSVALANEVATVRLMAEVALLIGPGDVVTLSGDLGAGKTAAARAMIRYLADDDALEVPSPTFTLVQTYDLPPYPLLHADLYRVEDPSELEEIGLSPLPDGTVALIEWPERAGAALPEDRIDIALSHRPALGPSARAAEITGHGKAVKQVERLAALRSFIETAGYADAERRHMPGDASTRSYARLQRGAESVILMNAPRRPDGPALYAGKSYSAAVHLAEDVRPFVAIGQGLRERGFSAPAIHHADLDAGFLITEDLGRIGFVEGDPPAPVVARYQAATDMLAALHAKPLPDHLPLSTRESYAVPTFDEAAMMIEVGLMPEWYLPDRGAPPSEALRVEFVALWRKLLAGIATAPRTWVLRDYHSPNLIWLEDRPGIERVGVIDFQDTVLGPAAYDVVSLLQDARIDVPEAAELSLLGRYVKARLAADPEFDAPGFARLYAVMSAQRNTRLLGTFARLNRRDGKPQYLKHQPRVWAYLARSLAHPALAEVRAWYRDHVPPPL
protein production: failed

MVTREEFVARFGGVFEHSPFIAERAYDAGGAGLELTAKAVHGALCAQFRVASEAERLGVLRAHPDLAGKLAIAGELTADSRNEQAGAGLDRLSPQEHARFTQLNSAYTEKFGFPFIIAVKGLNRHDILSAFDTRIDNNAAQEFATATGQVEKIAWLRLASMLPEG
protein production: not failed

MAMRDLVNGGAACAVPGSSSSSNPLGALTNALLGSSSKTQERLKEIPNANRSGPRPQFYSEDQQIRSLPGSELDQPLLQPGAQGSEFFRGFRSVDQNGLGAAWDEVQQGGPMPPMGPMFEPVQPTFEGPPQRVLSNFLHSFVESSRGGIPFRPAPVPVLGLSQSDKQCIRDRSSIMARHFFADRGEEFINSQVNALLSSLDIDDGIQARGHVPGRFRELDDYWNESQAVVKPNLHPADNWAAEFNQHGMDHGGPDSWVQSFEQQHGVNGWATEFEQGQSQLMSSQMRSMDMQNIAAMEQTRKLAHTLSQDGNPKFQNSRFLQFVSKMSRGELIIDENQVKQASAPGEWATEYEQQYLGPPSWADQFANEKLSHGPEQWADEFASGRGQQETAEDQWVNEFSKLNVDDWIDEFAEGPVGDSSADAWANAYDEFLNEKNAGKQTSGVYVFSDMNPYVGHPEPMKEGQELFRKGLLSEAALALEAEVMKNPENAEGWRLLGVTHAENDDDQQAIAAMMRAQEADPTNLEVLLALGVSHTNELEQATALKYLYGWLRNHPKYGAIAPPELADSLYHADIARLFNEASQLNPEDADVHIVLGVLYNLSREFDRAITSFQTALQLKPNDYSLWNKLGATQANSVQSADAISAYQQALDLKPNYVRAWANMGISYANQGMYKESIPYYVRALAMNPKADNAWQYLRLSLSCASRQDMIEACESRNLDLLQKEFPL
protein production: failed

MKSADQLMSDIQLSLQALFQKIQPEMLESMEKQGVTPAQLFVLASLKKHGSLKVSEIAERMEVKPSAVTLMADRLEQKNLIARTHNTKDRRVIDLSLTDEGDIKFEEVLAGRKAIMARYLSFLTEEEMLQAAHITAKLAQAAETDEKQNMKRGNG
protein production: not failed

MKHLNIYIMLLGFSIFTGATFNLAKYTVGYFSPSSSAAWRFGLAAAVMLIILIFTEGIKKSQLRKNAVSYIVLGIIGIFGFNALFFVGLKYTSPVNGALIMGLNPLLTAILARIILKDNMTKKQVLGIFFAFIGVLLVITQGSIETIKTLSISGGDLIIFTGNVCWALYGVLGRRFVKDGTPLSTTTYTMVIGAVSLIVVSLFTSKPVSLSNIPIGVWGAIAFMAFFTSVLGYLWWNQGIKEIGASKTSLFFNLVPVVTMIISFAVGTPIKVFQVIGAVLVILGVLTASGVIRIPKYNTKEQSAI
protein production: failed

MAGLSTAELVDIALEMAEMRTLPADSAVYVESTDLKRVMMGIDIGPAELLLARQLGCDGVIAHHPAGGSATLNFPEVLTRHVELMVEHGVPATAARDAIQGLLTRSLLRAQSANHDHTPSVARLLEMPFLNIHLPLDEVGRRIMVKTIQEAVEPLGDEARVQDAIDALMTLPEFAGAATRIMVPVGAVDQPLGKIAVVHGAGTNGGYAVARAYFDHGVRTVLYIHIAPEEAERLRREGGGNLIVTGHIASDLVGINRYVQALEERGVEVVRMSGL
protein production: not failed

MFLGELTERPVSLYAAAVLRIGYGLLYLAFLLREFPHRDEIWGPGSPWTPELARQLFDQTGWVSILTLSDGRAYFEACYALALVTCALFLLGWRTRAVSVLFAVVVASFHARAIFMTDGGDNLVLLMAVYLVFTACGRRWSLDARRTRLRAGASPAASPPARQEADGFRRQLGASRRTLTAVLHNCGMFVIAAQVCFLYGSAGLYKVQGGSWGNGTALHYVLNLDLFRPWPELSLLTDEHDVLMAIACYLTVLLQVAFPFVLFGRLKYPVLTVLLGMHLGIAVLLGLPLFSGAMIVADAVFLPDRCYLLLGRLWRRAGRRTGSTEAGAPARGESAFLPPQSAVSSPRTAAAPVRGRRA
protein production: failed

MSLGGNGREKDHASELRSIFSLKKIADAVNGYEEAKYVVFGIPFDNTSSYRRGSKYAPDSIRGAYVNLESYEYSYGIDLLASGMADLGDMEESEDVEYVIDTVESVVSAVMSDGKIPIMLGGEHSITVGAVRALPKDVDLVIVDAHSDFRSSYMGNKYNHACVTRRALDLLGEGRITSIGIRSVSREEFEDPDFRKVSFISSFDVKKNGIDKYIEEVDRKSRRVYISVDMDGIDPAYAPAVGTPEPFGLADTDVRRLIERLSYKAVGFDIVEFSPLYDNGNTSMLAAKLLQVFIASREKYYKEHIEGHHHHHH
protein production: not failed

MTDDVTNVEQPSTASEQQPQDVPAAEPSAAKKRRANKAKSKATAAAIEQRLGHSFADPSLLTTAFTHVSALKSARRTDSYQRLEFLGDHVLGLIVSDMLYRAFPDADEGELSKRLADLVRKETCADVARSLDLVEGIKLGTVGAGAGAKLRKSVLGDICEAVIGAIYLDGGYEAASDFVRRNWTERMRKPARSLRDPKTVLQEWAQARGLPTPVYREVERTGPHHDPQFRVAVILPGLEPAEGLGGSKRAAEKVAASAMLAREGVGTGGNDG
protein production: failed

MHYDVIVIGGGPSGLMAAIGAAEEGANVLLLDKGNKLGRKLAISGGGRCNVTNRLPLDEIVKHIPGNGRFLYSAFSIFNNEDIITFFENLGVKLKEEDPGRMFPVSNKAQSVVDALLTRLKDLGVKIRTNTPVETIEYENGQTKAVILQTGEVLETNHVVIAVGGKSVPQTGSTGDGYAWAEKAGHTITELFPTEVPILSNEPFIRDRSLQGLALRDINLSVLNPKGKAIISHKMDMLFTHFGLSGPAALRCSQFVVKALKKFKTNTIQMSIDALPEENSEQLFQRMLKQMKEDPKKGIKNVLKGYVPERYFLFLLEKNEIDGSEQAGQVSHEKIRALVKDFKEFTVNVNGTQSIEKAFVTGGGVSVKEINPKEMSSKFTNGLYFCGEVLDIHGYTGGYNITSALVTGRIAGTTAGENAKMQY
protein production: not failed

MEDSSLLSPISLLTIVIFLFILNLMMIIQDFSSSFPFRFHLFFSNAYILFTSIRNNKQNTELPIIKKVVVPNRADIKTSVEEVKAIIDDSEALYECLIEEGEEYLLEKNEMMGKEIVKEAFRLFDENQDGFIDENELKHVLSLLGYDECTKMECRKMVKVYDENRDGKIDFYEFVKLIEKSFS
protein production: failed
